Assay results published in patent US20240132578A1.

What was measured:
Experiment in all cases: cell-based or functional assay
[1] = target: HIV-1 APV-17 envelope (Env) on pseudovirus (HIV-1)
[2] = target: HIV-1 Env of isolate MGRM-D-019 (clade D pseudovirus) (HIV-1)
[3] = target: HIV-1 Env of isolate MGRM-A-009 (clade A pseudovirus) (HIV-1)
[4] = target: HIV-1 MGRM-AG-001 Env (pseudovirus) (HIV-1)
[5] = target: HIV-1 MGRM-AG-012 Env (pseudovirus) (HIV-1)
[6] = target: HIV-1 CMU02 Env (pseudovirus) (HIV-1)
[7] = target: HIV-1 envelope glycoprotein (Env) of isolate MGRM-C-017 (HIV-1)
[8] = target: HIV-1 Env of pseudovirus MGRM-F1-022 (clade F) (HIV-1)
[9] = target: HIV-1 Env of pseudovirus MGRM-G-013 (HIV-1)
[10] = target: HIV-1 Env of isolate MGRM-D-008 (clade D pseudovirus) (HIV-1)
[11] = target: HIV-1 envelope glycoprotein (Env) of isolate MGRM-C-013 (HIV-1)
[12] = target: HIV-1 Env of isolate 92UG046 (clade D pseudovirus) (HIV-1)
[13] = target: HIV-1 Env of pseudovirus MGRM-G-016 (HIV-1)
[14] = target: HIV-1 Env of isolate 94UG103 (clade A pseudovirus) (HIV-1)
[15] = target: HIV-1 MGRM-G-006 Env (pseudovirus) (HIV-1)
[16] = target: HIV-1 93IN905 envelope (Env) on pseudovirus (HIV-1)
[17] = target: HIV-1 envelope glycoprotein (Env) of isolate MGRM-C-005 (HIV-1)
[18] = target: HIV-1 Env of pseudovirus MGRM-D-024 (HIV-1)
[19] = target: HIV-1 Env of pseudovirus MGRM-D-028 (HIV-1)
[20] = target: HIV-1 Env of pseudovirus MGRM-F1-018 (HIV-1)
[21] = target: aMLV envelope (negative control pseudovirus) (aMLV)
[22] = target: HIV-1 Env of pseudovirus isolate MGRM-Chronic-B-004 (clade B) (HIV-1)
[23] = target: HIV-1 Env of isolate MGRM-C-027 (subtype C), on pseudovirus (HIV-1)
[24] = target: HIV-1 Env of isolate MG RM-A-007 (pseudovirus) (HIV-1)
[25] = target: HIV-1 Env of isolate 92UG046 (HIV-1)

PGT-144 (4970_K22) (antibody), sequence (VH): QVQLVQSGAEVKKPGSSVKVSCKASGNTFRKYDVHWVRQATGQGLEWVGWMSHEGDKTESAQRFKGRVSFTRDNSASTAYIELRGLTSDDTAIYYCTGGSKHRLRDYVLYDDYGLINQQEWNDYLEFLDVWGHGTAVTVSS
PGT-144 (4970_K22) (antibody), sequence (VL): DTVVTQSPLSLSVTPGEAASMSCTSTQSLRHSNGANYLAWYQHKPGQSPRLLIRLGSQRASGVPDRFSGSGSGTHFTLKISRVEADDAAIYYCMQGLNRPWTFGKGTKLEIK
PGT-141 (4964_G22; 4993_K13) (antibody), sequence (VH): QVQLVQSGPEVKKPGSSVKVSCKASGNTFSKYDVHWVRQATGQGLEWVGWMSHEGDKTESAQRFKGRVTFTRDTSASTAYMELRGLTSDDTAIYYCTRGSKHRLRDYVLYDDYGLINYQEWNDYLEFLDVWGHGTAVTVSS
PGT-141 (4964_G22; 4993_K13) (antibody), sequence (VL): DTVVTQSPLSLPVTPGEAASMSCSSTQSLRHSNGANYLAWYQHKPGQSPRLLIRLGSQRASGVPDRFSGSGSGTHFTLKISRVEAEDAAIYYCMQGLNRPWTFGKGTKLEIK
1443_C16 (PG16) (TCN-116) (antibody), sequence (VH): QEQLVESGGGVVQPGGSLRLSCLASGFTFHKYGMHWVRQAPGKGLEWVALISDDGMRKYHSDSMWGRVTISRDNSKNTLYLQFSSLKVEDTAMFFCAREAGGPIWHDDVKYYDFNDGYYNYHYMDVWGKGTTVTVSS
1443_C16 (PG16) (TCN-116) (antibody), sequence (VL): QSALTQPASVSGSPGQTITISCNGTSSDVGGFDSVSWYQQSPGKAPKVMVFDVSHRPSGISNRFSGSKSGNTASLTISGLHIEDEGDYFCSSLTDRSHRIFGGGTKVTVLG
4980_N08 (PGT-143) (antibody), sequence (VH): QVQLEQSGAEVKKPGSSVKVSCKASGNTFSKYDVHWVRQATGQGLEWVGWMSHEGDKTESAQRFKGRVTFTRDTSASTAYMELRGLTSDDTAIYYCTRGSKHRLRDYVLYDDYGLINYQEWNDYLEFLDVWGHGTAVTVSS
4980_N08 (PGT-143) (antibody), sequence (VL): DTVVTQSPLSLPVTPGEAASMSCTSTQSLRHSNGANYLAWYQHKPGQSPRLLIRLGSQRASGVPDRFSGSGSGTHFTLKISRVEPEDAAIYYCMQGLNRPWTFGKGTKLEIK
PGT-142 (4995_E20) (antibody), sequence (VH): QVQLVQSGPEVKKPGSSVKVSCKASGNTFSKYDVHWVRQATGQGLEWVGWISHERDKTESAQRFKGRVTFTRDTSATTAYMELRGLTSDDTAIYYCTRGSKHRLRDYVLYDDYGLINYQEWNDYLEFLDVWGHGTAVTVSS
PGT-145 (4995_P16) (antibody), sequence (VH): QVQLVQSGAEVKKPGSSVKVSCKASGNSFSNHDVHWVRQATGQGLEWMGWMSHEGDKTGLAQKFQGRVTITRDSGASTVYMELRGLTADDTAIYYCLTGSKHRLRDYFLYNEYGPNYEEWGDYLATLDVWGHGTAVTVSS
PGT-145 (4995_P16) (antibody), sequence (VL): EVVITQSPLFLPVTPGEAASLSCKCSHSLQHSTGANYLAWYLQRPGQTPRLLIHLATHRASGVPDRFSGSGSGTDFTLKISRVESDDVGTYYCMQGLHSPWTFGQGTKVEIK

Row | Substance | neutralization IC50 [1] [µg/mL] | IC50, pseudovirus neutralization [2] [µg/mL] | IC50 (µg/ml), pseudovirus neutralization [3] [µg/mL] | IC50 (µg/ml), pseudovirus neutralization [4] [µg/mL] | IC50 (µg/ml), pseudovirus neutralization [5] [µg/mL] | IC50 (µg/ml), pseudovirus neutralization [6] [µg/mL] | IC50 (µg/ml), pseudovirus neutralization [7] [µg/mL] | IC50 [8] [µg/mL] | IC50 (µg/ml), pseudovirus neutralization [9] [µg/mL] | IC50, pseudovirus neutralization [10] [µg/mL] | IC50 (µg/ml), pseudovirus neutralization [11] [µg/mL] | IC50, pseudovirus neutralization [12] [µg/mL] | IC50 (µg/ml), pseudovirus neutralization [13] [µg/mL] | IC50 (µg/ml), pseudovirus neutralization [14] [µg/mL] | IC50 (µg/ml), pseudovirus neutralization [15] [µg/mL] | neutralization IC50 [16] [µg/mL] | IC50 (µg/ml), pseudovirus neutralization [17] [µg/mL] | IC50, pseudovirus neutralization [18] [µg/mL] | IC50, pseudovirus neutralization [19] [µg/mL] | IC50, pseudovirus neutralization [20] [µg/mL] | also measured
1 | 4E10 (antibody) | 5.1 | 0.04 | 12 | 1.12 | 0.86 | 0.72 | 1.47 | 1.01 | 1.15 | 42.9 | 2.1 | 12.2 | 1.02 | 4.97 | 1.23 | 1.55 | 16.4 | – | – | – | –
2 | PGT-143 (4980_N08) (antibody) | – | – | – | – | – | – | – | – | – | – | – | – | – | – | – | – | – | > 50 | > 50 | 0.701 | –
3 | PGT-142 (4995_E20) (antibody) | – | – | – | – | – | – | – | – | – | – | – | – | – | – | – | – | – | > 50 | > 50 | 0.404 | –
4 | b12 (antibody) | > 25 | > 50 | 4.34 | 11.9 | 10.4 | 29.3 | > 50 | > 50 | > 50 | > 50 | > 50 | 0.07 | > 50 | 6.92 | > 50 | 34.1 | 2.66 | – | – | – | –
5 | 1495_C14 (PGC14) (antibody) | > 50 | > 50 | > 50 | > 50 | > 50 | > 50 | > 50 | > 50 | > 50 | > 50 | > 50 | > 50 | > 50 | > 50 | > 50 | > 50 | > 50 | – | – | – | –
6 | PGT-144 (4970_K22) (antibody) | – | – | – | – | – | – | – | – | – | – | – | – | – | – | – | – | – | > 50 | > 50 | > 50 | –
7 | PGT-141 (4964_G22; 4993_K13) (antibody) | – | – | – | – | – | – | – | – | – | – | – | – | – | – | – | – | – | > 50 | < 50 | 0.785 | –
8 | 2G12 (antibody) | > 50 | > 50 | 7.47 | 0.69 | 1.94 | > 50 | > 50 | > 50 | > 50 | > 50 | > 50 | > 50 | > 50 | 48.1 | > 50 | > 50 | > 50 | – | – | – | –
9 | 2F5 (antibody) | 2 | 0.14 | 9.4 | 0.75 | 0.33 | 0.6 | > 50 | 1.26 | 0.59 | > 50 | 18.4 | > 50 | 16.8 | 1.92 | 1.33 | > 50 | > 50 | – | – | – | –
10 | 4995_E20 (PGT-142) (antibody) | – | – | – | – | – | – | – | – | – | – | – | – | – | – | – | – | – | – | – | – | IC50 (µg/mL), pseudovirus neutralization [21]: > 50 µg/mL; IC50, pseudovirus neutralization [22]: 0.172 µg/mL; IC50, single-round pseudovirus neutralization [23]: 0.792 µg/mL; IC50 (µg/mL), single-round pseudovirus neutralization [24]: > 50 µg/mL; IC50 (µg/mL), pseudovirus neutralization [25]: > 50 µg/mL
11 | VRC01 (antibody) | – | – | – | – | – | – | – | – | – | – | – | – | – | – | – | – | – | 0.366 | 0.377 | 0.032 | IC50 (µg/mL), pseudovirus neutralization [21]: > 50 µg/mL; IC50, pseudovirus neutralization [22]: 0.055 µg/mL; IC50, single-round pseudovirus neutralization [23]: 0.125 µg/mL; IC50 (µg/mL), single-round pseudovirus neutralization [24]: 12.6 µg/mL; IC50 (µg/mL), pseudovirus neutralization [25]: 12.7 µg/mL
12 | 4995_P16 (PGT-145) (antibody) | – | – | – | – | – | – | – | – | – | – | – | – | – | – | – | – | – | – | – | – | IC50 (µg/mL), pseudovirus neutralization [21]: > 50 µg/mL; IC50, pseudovirus neutralization [22]: 0.023 µg/mL; IC50, single-round pseudovirus neutralization [23]: 0.095 µg/mL; IC50 (µg/mL), single-round pseudovirus neutralization [24]: > 50 µg/mL; IC50 (µg/mL), pseudovirus neutralization [25]: > 50 µg/mL
13 | 4980_N08 (PGT-143) (antibody) | – | – | – | – | – | – | – | – | – | – | – | – | – | – | – | – | – | – | – | – | IC50 (µg/mL), pseudovirus neutralization [21]: > 50 µg/mL; IC50, pseudovirus neutralization [22]: 0.395 µg/mL; IC50, single-round pseudovirus neutralization [23]: 0.598 µg/mL; IC50 (µg/mL), single-round pseudovirus neutralization [24]: > 50 µg/mL; IC50 (µg/mL), pseudovirus neutralization [25]: > 50 µg/mL
14 | 1443_C16 (PG16) (TCN-116) (antibody) | > 50 | 0.01 | 0.01 | 0.03 | 25.1 | 43.6 | 1.8 | 0.08 | > 50 | > 50 | > 50 | 1.42 | 11.3 | 0.04 | 2.42 | 0.102 | 2.55 | – | – | – | –
15 | 4993_K13 (PGT-141) (antibody) | – | – | – | – | – | – | – | – | – | – | – | – | – | – | – | – | – | – | – | – | IC50 (µg/mL), pseudovirus neutralization [21]: > 50 µg/mL; IC50, pseudovirus neutralization [22]: 0.586 µg/mL; IC50, single-round pseudovirus neutralization [23]: 3.27 µg/mL; IC50 (µg/mL), single-round pseudovirus neutralization [24]: > 50 µg/mL; IC50 (µg/mL), pseudovirus neutralization [25]: > 50 µg/mL
16 | PGT-145 (4995_P16) (antibody) | – | – | – | – | – | – | – | – | – | – | – | – | – | – | – | – | – | 0.224 | 0.721 | 1.02 | –
